Test results from US20260102474A1 (DEUTSCHES KREBSFORSCHUNGSZENTRUM STIFTUNG DES FFENTLICHEN …, published 2026).

What was measured:
Assay in all cases: ELISA on coated his-tagged Fc receptor, anti-human-Fc HRP detection
[1] = biological target: T1, his-tagged FcγRIIb protein (R&D Systems) (UniProt P31994 46-217)
T1 sequence (looked up): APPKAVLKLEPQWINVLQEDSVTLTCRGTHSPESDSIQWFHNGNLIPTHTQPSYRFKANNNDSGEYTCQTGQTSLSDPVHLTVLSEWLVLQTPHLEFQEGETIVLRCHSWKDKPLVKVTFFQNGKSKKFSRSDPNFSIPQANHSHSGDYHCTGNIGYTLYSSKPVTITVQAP

[2] = biological target: T2, his-tagged FcγRIIa protein (R&D Systems) (UniProt P12318 36-218)
T2 sequence (looked up): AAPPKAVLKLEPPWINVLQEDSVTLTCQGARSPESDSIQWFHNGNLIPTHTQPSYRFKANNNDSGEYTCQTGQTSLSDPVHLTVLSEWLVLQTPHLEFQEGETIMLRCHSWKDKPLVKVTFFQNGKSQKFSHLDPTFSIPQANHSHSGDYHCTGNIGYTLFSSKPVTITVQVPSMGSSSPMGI

[3] = biological target: his-tagged FcRIIIa protein (R&D Systems) (UniProt P08637 17-208)
Sequence of his-tagged FcRIIIa protein (R&D Systems) (P08637 17-208 limits assumed): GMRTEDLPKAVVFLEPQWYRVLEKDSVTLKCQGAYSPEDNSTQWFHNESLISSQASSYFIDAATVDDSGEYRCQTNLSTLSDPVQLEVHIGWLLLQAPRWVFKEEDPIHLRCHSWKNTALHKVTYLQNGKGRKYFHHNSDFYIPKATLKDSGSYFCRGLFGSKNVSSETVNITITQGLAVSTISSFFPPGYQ

[4] = biological target: his-tagged FcγRI protein (R&D Systems) (UniProt P12314 16-288)
Sequence of his-tagged FcγRI protein (R&D Systems) (P12314 16-288 limits assumed): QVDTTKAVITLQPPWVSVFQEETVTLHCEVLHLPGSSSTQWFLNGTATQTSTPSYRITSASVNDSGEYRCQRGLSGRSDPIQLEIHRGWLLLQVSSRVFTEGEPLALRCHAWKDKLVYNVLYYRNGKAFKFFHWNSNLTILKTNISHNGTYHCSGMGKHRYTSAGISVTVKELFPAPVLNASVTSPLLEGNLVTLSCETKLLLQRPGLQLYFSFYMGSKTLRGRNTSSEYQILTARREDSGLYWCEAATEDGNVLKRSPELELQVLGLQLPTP

Measured: binding result

B1: ACE2-M1-FcKO (Fc fusion)
chain: STIEEQAKYFLDKFNHEAEDLFYQSSLASWNYNTNITEENVQNMNNAGDKWSAFLKEQSTYAQMYPLQEIQNLTVKLQLQALQQNGSSVLSEDKSKRLNTILNTMSTIYSTGKVCNPDNPQECLLLEPGLNEIMANSLDYNERLWAWESWRSEVGKQLRPLYEEYVVLKNEMARANHYEDYGDYWRGDYEVNGVDGYDYSRGQLIEDVEHTFEEIKPLYEHLHAYVRAKLMNAYPSYISPIGCLPAHLLGDMWGRFWTNLYSLTVPFGQKPNIDVTDAMVDQAWDAQRIFKEAEKFFVSVGLPNMTQGFWEYSMLTDPGNVQKAVCHPTAWDLGKGDFRILMCTKVTMDDFLTAHREMGRIQYDMAYAAQPFLLRNGANEGFHEAVGEIMSLSAATPKHLKSIGLLSPDFQEDNETEINFLLKQALTIVGTLPFTYMLEKWRWMVFKGEIPKDQWMKKWWEMKREIVGVVEPVPHDETYCDPASLFHVSNDYSFIRYYTRTLYQFQFQEALCQAAKHEGPLHKCDISNSTEAGQKLFNMLRLGKSEPWTLALENVVGAKNMNVRPLLNYFEPLFTWLKDQNKNSFVGWSTDWSPYADQSIKVRISLKSALGDKAYEWNDNEMYLFRSSVAYAMRQYFLKVKNQMILFGEEDVRVANLKPRISFNFFVTAPKNVSDIIPRTEVEKAIRMSRSRINDAFRLNDNSLEFLGIQPTLGPPNQPPVSSGGGGSGGGGSGGGGSEPKSSDKTHTCPPCPAPPVAGPSVFLFPPKPKDTLMISRTPEVTCVVVGVSHEDPEVKFNWYVDGVEVHNAKTKPREEQYNSTYRVVSVLTVLHQDWLNGKEYKCKVSNKQLPSPIEKTISKAKGQPGQPREPQVYTLPPSRDELTKNQVSLTCLVKGFYPSDIAVEWESNGQPENNYKTTPPVLDSDGSFFLYSKLTVDKSRWQQGNVFSCSVMHEALHNHYTQKSLSLSPGK
notes: also called M1 version
no binding: all assays above
